Measured values as given in patent US20190016812A1 (AbbVie / Abbott, published 2019).
Like-named read-outs stand apart in the source and are kept apart here.

B1: SC113.15 (antibody, mouse IgG1, V domains shown)
VH: QVQLQQSGAELAKPGASVKMSCKASGYTFTTFWMHWLKQRPGQGLEWIGYINPRTYFTYYNQKFEDQATLTADESSSTAYMQLNSLTSEDSAVYYCATHHGGFDVWGAGTTVTVSS
VL: DVVMTQTPLSLPVSLGDQASISCRSSQSLVHSNGDTYLHWYLQKPGQSPKLLIYKVSNRFSGVPDRFSGSRSGTDFTLKISRVEAEDLGIYFCSQSTHVPYTFGGGTKLEIK
notes: mouse IgG1
B2: SC113.44 (antibody, mouse IgG1, V domains shown)
VH: QVQLQQSGPELVKPGTSVRISCKASGYTFTSYYIHWVKQRPGQGLEWIGWIYPRDVDTKYNETFKGKATLTADKSSSTAYIQLNSLTSEDSAVYFCARELTGTVFDYWGQGTTLTVSS
VL: QIVLSQSPAILSASPGEKVTMTCRASSSVTYMHWYQRKPGSSPKPWIYATSTLASGVPARFSGTGSGTSYSLTISRVEAEDAATYFCQQWSSNPLTFGAGTKLELK
notes: mouse IgG1
B3: SC113.14 (antibody, mouse IgG2a, V domains shown)
VH: QVQLQQSGAELVKPGASVKLSCKASGYTFTEYTIHWVKQKSGQGLEWIGWFYPGSGSLKFNEKFKDKATLTADISSNTVYMELSRLTSEDSAVYFCARHEDFFYFDSYTMDYWGQGTSVTVSS
VL: QIVLTQSPAIMSASPGEKVTLTCSASSSVSSSYLYWYQQKPGSSPKLWIYSTSKLSSGVPARFSGSGSGTSYSLTISSMEAEDAASYFCHQWSTYPWTFGGGTKLEIK
notes: mouse IgG2a

What was measured:
[1] = target: T1, cynomolgus TNFSF9 (cTNFSF9) protein, soluble recombinant (cynomolgus); experiment: SPR (Biacore)
T1 construct: extracellular domain; also called cynomolgus TNFSF9 protein

[2] = target: T2, hTNFSF9-His (monomeric human TNFSF9 extracellular domain with 9x-Histidine tag) (human, UniProt P41273 50-254); experiment: SPR (Biacore)
T2 construct: also called hTNFSF9-His protein; monomeric hTNFSF9-His antigen
T2 sequence (P41273 other isoform, or with tags, fused parts or gaps): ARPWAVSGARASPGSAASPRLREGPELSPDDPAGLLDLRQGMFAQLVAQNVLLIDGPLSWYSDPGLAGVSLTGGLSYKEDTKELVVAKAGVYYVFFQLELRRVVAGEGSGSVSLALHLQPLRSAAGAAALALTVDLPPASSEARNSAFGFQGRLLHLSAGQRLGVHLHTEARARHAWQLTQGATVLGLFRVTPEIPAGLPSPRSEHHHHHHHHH

[3] = target: T3, cynomolgus TNFSF9 (cTNFSF9), full length, overexpressed on HEK293T cells (cynomolgus); experiment: cell-based or functional assay
[4] = target: T4, human TNFSF9 (hTNFSF9), full length, overexpressed on HEK293T cells (human, UniProt P41273 1-254); experiment: cell-based or functional assay
[5] = target: T5, human TNFSF9 (R&D Systems; #2295-4L-025/CF) (human, UniProt P41273 71-254, limits assumed); experiment: MSD ELISA: TNFSF9 + 1 ug/mL antibody, binding to coated TNFRSF9
T5 construct: also called TNFSF9 (ligand); TNFSF9 ligand
T5 sequence (P41273 71-254 limits assumed): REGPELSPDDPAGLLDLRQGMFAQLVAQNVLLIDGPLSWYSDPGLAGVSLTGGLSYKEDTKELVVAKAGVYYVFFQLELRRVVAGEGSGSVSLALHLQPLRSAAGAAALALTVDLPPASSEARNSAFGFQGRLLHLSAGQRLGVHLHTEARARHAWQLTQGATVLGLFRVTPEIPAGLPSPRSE

[6] = target: T1, cynomolgus TNFSF9 (cTNFSF9) protein, …; experiment: SPR (Biacore); remark: listed apart in the source
[7] = target: T2, hTNFSF9-His (monomeric human TNFSF9 …); experiment: SPR (Biacore); remark: listed apart in the source
[8] = target: T5, human TNFSF9 (R&D Systems; …); experiment: MSD ELISA: TNFSF9 + 1 ug/mL antibody, binding to coated TNFRSF9; remark: listed apart in the source
[9] = target: T3, cynomolgus TNFSF9 (cTNFSF9), full …; experiment: cell-based or functional assay; remark: listed apart in the source
[10] = target: T4, human TNFSF9 (hTNFSF9), full length, …; experiment: cell-based or functional assay; remark: listed apart in the source

Binder	Kd [1]	Kd [2]	% live cells, Fab-saporin killing, 250 pM antibody [3]	% live cells, Fab-saporin killing, 250 pM antibody [4]	% inhibition of ligand receptor interaction [5]	Kd [6]	Kd [7]	% inhibition of ligand receptor interaction [8]	% live cells, Fab-saporin killing, 250 pM antibody [9]	% live cells, Fab-saporin killing, 250 pM antibody [10]
B1	11 nM	5 nM	107%	20.2%	42%	–	–	–	–	–
B2	–	–	–	–	–	13 nM	9 nM	48%	33.9%	10.8%
B3	7 nM	3 nM	11%	10.2%	-34%	–	–	–	–	–
